Details in all cases: protein: recombinant; label: 5' 6-FAM on strand 1; blunt
Data set [1] addresses T1, TFAM (no MTS) (Homo sapiens, UniProt Q00059 43-246).
T1 sequence: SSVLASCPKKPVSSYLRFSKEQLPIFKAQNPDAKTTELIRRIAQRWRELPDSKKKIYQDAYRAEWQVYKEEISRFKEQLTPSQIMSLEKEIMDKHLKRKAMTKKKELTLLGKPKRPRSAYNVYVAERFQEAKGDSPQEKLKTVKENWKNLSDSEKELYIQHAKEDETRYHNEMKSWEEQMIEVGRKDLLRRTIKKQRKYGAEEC
As to the kind of experiment: fluorescence anisotropy; Hill n 2.46±0.23; FP: 25 mM HEPES, 10 mM Mg(OAc)2, 25 mM NaOAc, 75 mM KOAc, pH 7.5, 1 nM DNA, TFAM 0-15 nM diluted on ice (read temperature not stated); AFM oligos: on ice, 2 min.

Data set [2] has as its target T1, TFAM (no MTS). Description: fluorescence anisotropy; +UVC; Hill n 2.33±0.10; FP: 25 mM HEPES, 10 mM Mg(OAc)2, 25 mM NaOAc, 75 mM KOAc, pH 7.5, 1 nM DNA, TFAM 0-15 nM diluted on ice (read temperature not stated); AFM oligos: on ice, 2 min.
The target in data set [3] is T1, TFAM (no MTS). As to the kind of experiment: fluorescence anisotropy; +UVC; Hill n 2.19±0.06; FP: 25 mM HEPES, 10 mM Mg(OAc)2, 25 mM NaOAc, 75 mM KOAc, pH 7.5, 1 nM DNA, TFAM 0-15 nM diluted on ice (read temperature not stated); AFM oligos: on ice, 2 min.
In data set [4] the target is T1, TFAM (no MTS). Description: fluorescence anisotropy; Hill n 2.07±0.07; FP: 25 mM HEPES, 10 mM Mg(OAc)2, 25 mM NaOAc, 75 mM KOAc, pH 7.5, 1 nM DNA, TFAM 0-15 nM diluted on ice (read temperature not stated); AFM oligos: on ice, 2 min.
The target of data set [5] is T1, TFAM (no MTS). Description: fluorescence anisotropy; +UVC; Hill n 2.12±0.28; FP: 25 mM HEPES, 10 mM Mg(OAc)2, 25 mM NaOAc, 75 mM KOAc, pH 7.5, 1 nM DNA, TFAM 0-15 nM diluted on ice (read temperature not stated); AFM oligos: on ice, 2 min.

B1: RNR2_619 (dsDNA)
DNA 1: ATTGATCCAATAACTTGACCAACGGAACAAGTT
DNA 2: AACTTGTTCCGTTGGTCAAGTTATTGGATCAAT
As to B1, in the data set with TFAM (no MTS) [1], the Kd was found to be 4.89 ± 0.33 nM.

B2: RNR2_619 +UVC (dsDNA)
DNA 1: ATTGATCCAATAACTTGACCAACGGAACAAGTT
DNA 2: AACTTGTTCCGTTGGTCAAGTTATTGGATCAAT
modifications: UVC 1500 J/m2 photolesions (positions undefined)
B2: the Kd with TFAM (no MTS) [2] worked out at 8.13 ± 0.39 nM.

B3: ND3_92 +UVC (dsDNA)
DNA 1: TTAGTAGCTATTACCTTCTTATTATTTGATCTA
DNA 2: TAGATCAAATAATAAGAAGGTAATAGCTACTAA
modifications: UVC 1500 J/m2 photolesions (positions undefined)
As to B3, the Kd with TFAM (no MTS) [3] worked out at 5.54 ± 0.14 nM.

B4: COX1_27 (dsDNA)
DNA 1: AAGACATTGGAACACTATACCTATTATTCGGCG
DNA 2: CGCCGAATAATAGGTATAGTGTTCCAATGTCTT
In the case of B4, the dissociation constant Kd in the data set with TFAM (no MTS) [4] was 6.09 ± 0.43 nM.

B5: COX1_27 +UVC (dsDNA)
DNA 1: AAGACATTGGAACACTATACCTATTATTCGGCG
DNA 2: CGCCGAATAATAGGTATAGTGTTCCAATGTCTT
modifications: UVC 1500 J/m2 photolesions (positions undefined)
For the molecule B5, in the data set with TFAM (no MTS) [5], the dissociation constant (Kd) was 5.9 ± 0.1 nM.

The record behind these values is paper PMC13016609, “UV irradiation alters TFAM binding specificity and compaction of DNA”.
